Laboratory results taken from patent EP4685489A2 (Roche Diagnostics GmbH, dated 2026).
Blank lines part the entries; values can stand above or below the binder they belong to.

What was measured:
[1] = target: T1, recombinant N-terminal fragment (residues 1-330) of human cardiac-type Myosin-binding protein C3 with … (human, UniProt Q14896 1-330); test: SPR (Biacore) at 37°C, antibody captured via anti-rabbit Fc, MYBPC3 0.4-90 nM, Langmuir 1:1 fit over 2 series
T1 construct: expressed in HEK293-F cells and purified as a monomer; also called MYBPC3; N-terminal MyBPC-Fragment (1-330)

[2] = target: T1, recombinant N-terminal fragment …; test: Elecsys ECLIA sandwich; row antibody biotinylated (capture), second antibody ruthenylated 4.1.1 (detection); 0.9 pg/mL MYBPC3
[3] = target: T1, recombinant N-terminal fragment …; test: Elecsys ECLIA sandwich; row antibody biotinylated (capture), second antibody ruthenylated 25H1 (detection); 0.9 pg/mL MYBPC3
[4] = target: T1, recombinant N-terminal fragment …; test: sandwich ELISA, streptavidin MTP; row antibody biotinylated (capture), second antibody DIG-labelled 4.1.1 (detection); 2.7 pg/mL MYBPC3
[5] = target: T1, recombinant N-terminal fragment …; test: Elecsys ECLIA sandwich; row antibody biotinylated (capture), second antibody ruthenylated 13F11 (detection); 0.9 pg/mL MYBPC3
[6] = target: T1, recombinant N-terminal fragment …; test: Elecsys ECLIA sandwich; row antibody biotinylated (capture), second antibody ruthenylated 13F11 (detection); 2.7 pg/mL MYBPC3
[7] = target: T1, recombinant N-terminal fragment …; test: Elecsys ECLIA sandwich; row antibody biotinylated (capture), second antibody ruthenylated 4.1.1 (detection); 2.7 pg/mL MYBPC3
[8] = target: T1, recombinant N-terminal fragment …; test: sandwich ELISA, streptavidin MTP; row antibody biotinylated (capture), second antibody DIG-labelled 5B8 (detection); 2.7 pg/mL MYBPC3
[9] = target: T1, recombinant N-terminal fragment …; test: sandwich ELISA, streptavidin MTP; row antibody biotinylated (capture), second antibody DIG-labelled 4.7.10 (detection); 2.7 pg/mL MYBPC3
[10] = target: T1, recombinant N-terminal fragment …; test: Elecsys ECLIA sandwich; row antibody biotinylated (capture), second antibody ruthenylated 25H1 (detection); 2.7 pg/mL MYBPC3
[11] = target: T1, recombinant N-terminal fragment …; test: sandwich ELISA, streptavidin MTP; row antibody biotinylated (capture), second antibody DIG-labelled 7B5 (detection); 2.7 pg/mL MYBPC3
[12] = target: T1, recombinant N-terminal fragment …; test: Elecsys ECLIA sandwich; row antibody biotinylated (capture), second antibody ruthenylated 5B8 (detection); 2.7 pg/mL MYBPC3
[13] = target: T1, recombinant N-terminal fragment …; test: Elecsys ECLIA sandwich; row antibody biotinylated (capture), second antibody ruthenylated 7B5 (detection); 0.9 pg/mL MYBPC3
[14] = target: T1, recombinant N-terminal fragment …; test: sandwich ELISA, streptavidin MTP; row antibody biotinylated (capture), second antibody DIG-labelled 4.7.10 (detection); 1 ng/mL MYBPC3
[15] = target: T1, recombinant N-terminal fragment …; test: Elecsys ECLIA sandwich; row antibody biotinylated (capture), second antibody ruthenylated 8H1 (detection); 2.7 pg/mL MYBPC3
[16] = target: T1, recombinant N-terminal fragment …; test: Elecsys ECLIA sandwich; row antibody biotinylated (capture), second antibody ruthenylated 8H1 (detection); 0.9 pg/mL MYBPC3
[17] = target: T1, recombinant N-terminal fragment …; test: SPR (Biacore) at 37°C, antibody captured via anti-mouse Fc, MYBPC3 0.4-90 nM, Langmuir 1:1 fit over 2 series
[18] = target: T1, recombinant N-terminal fragment …; test: Elecsys ECLIA sandwich; row antibody biotinylated (capture), second antibody ruthenylated 7D5 (detection); 0.9 pg/mL MYBPC3
[19] = target: T1, recombinant N-terminal fragment …; test: sandwich ELISA, streptavidin MTP; row antibody biotinylated (capture), second antibody DIG-labelled 4.1.1 (detection); 1 ng/mL MYBPC3
[20] = target: T1, recombinant N-terminal fragment …; test: Elecsys ECLIA sandwich; row antibody biotinylated (capture), second antibody ruthenylated 7B5 (detection); 2.7 pg/mL MYBPC3
[21] = target: T1, recombinant N-terminal fragment …; test: Elecsys ECLIA sandwich; row antibody biotinylated (capture), second antibody ruthenylated 11F2 (detection); 2.7 pg/mL MYBPC3
[22] = target: T1, recombinant N-terminal fragment …; test: Elecsys ECLIA sandwich; row antibody biotinylated (capture), second antibody ruthenylated 11F2 (detection); 0.9 pg/mL MYBPC3
[23] = target: T1, recombinant N-terminal fragment …; test: Elecsys ECLIA sandwich; row antibody biotinylated (capture), second antibody ruthenylated 7D5 (detection); 2.7 pg/mL MYBPC3
[24] = target: T1, recombinant N-terminal fragment …; test: Elecsys ECLIA sandwich; row antibody biotinylated (capture), second antibody ruthenylated 5B8 (detection); 0.9 pg/mL MYBPC3
[25] = target: T1, recombinant N-terminal fragment …; test: sandwich ELISA, streptavidin MTP; row antibody biotinylated (capture), second antibody DIG-labelled 4.6.6 (detection); 1 ng/mL MYBPC3

T1 sequence (Q14896 other isoform, or with tags, fused parts or gaps limits assumed): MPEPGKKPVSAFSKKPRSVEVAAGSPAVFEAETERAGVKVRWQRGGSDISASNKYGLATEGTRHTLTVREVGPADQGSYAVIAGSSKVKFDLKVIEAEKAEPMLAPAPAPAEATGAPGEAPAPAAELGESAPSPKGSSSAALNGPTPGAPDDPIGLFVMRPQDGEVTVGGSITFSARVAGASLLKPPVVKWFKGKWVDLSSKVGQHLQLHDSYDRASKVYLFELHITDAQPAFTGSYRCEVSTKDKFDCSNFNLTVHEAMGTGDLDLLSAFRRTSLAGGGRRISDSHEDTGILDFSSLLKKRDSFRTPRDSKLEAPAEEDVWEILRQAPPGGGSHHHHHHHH

Kd [1]: 190 pM
koff [1]: 0.00051 s⁻¹
kon [1]: 2.7e+06 M⁻¹ s⁻¹
ratio (0.9 pg/mL) / blank [2]: 1.18
ratio (0.9 pg/mL) / blank [3]: 1.01
Ratio (Δ OD 2.7 pg/mL/blank) [4]: 3.07
ratio (0.9 pg/mL) / blank [5]: 1.01
ratio (2.7 pg/mL) /blank [6]: 1.02
ratio (2.7 pg/mL) /blank [7]: 1.4
Ratio (Δ OD 2.7 pg/mL/blank) [8]: 1.01
Ratio (Δ OD 2.7 pg/mL/blank) [9]: 0.98
ratio (2.7 pg/mL) /blank [10]: 1.03
Ratio (Δ OD 2.7 pg/mL/blank) [11]: 0.98
B1: monoclonal antibody 7B5 (antibody, V domains shown)
VH: QEQLEESGGGLVKPGGTLTLTCKVSGFDFSSGYDMCWVRQAPGKGLESIACIGSSSASTWYANWVNGRFTVSRSTSLNTVDLKMTSLTVADTATYFCARESSTEYYYNLWGPGTLVTVSS
VL: DIVMTQTPASVEAAVGGTVTIKCQASQSIGNALAWYQQKPGQPPKLLIYSTSYLPSGVPSRFKGGGSGAEYTLTISDLECADAATYYCQSYYVSTSSSDRSSFGGGTEVVVK
notes: Rabbit B-cell derived monoclonal IgG, expressed recombinantly in HEK293 cells; Biotinylated, DIG-labelled or ruthenylated in the sandwich assays; also called mAB 7B5; MAK<MYPBC3<rK-7B5-IgG(SPA)

ratio (2.7 pg/mL) /blank [12]: 1
ratio (0.9 pg/mL) / blank [3]: 1.01
ratio (0.9 pg/mL) / blank [13]: 1.11
Ratio (Δ OD 1 ng/mL MYBPC3) / blank [14]: 23.6
ratio (2.7 pg/mL) /blank [15]: 1.01
ratio (0.9 pg/mL) / blank [16]: 1.02
Kd [17]: 56 pM
koff [17]: 0.00012 s⁻¹
kon [17]: 2.1e+06 M⁻¹ s⁻¹
ratio (0.9 pg/mL) / blank [18]: 1.02
Ratio (Δ OD 1 ng/mL MYBPC3) / blank [19]: 1.09
ratio (0.9 pg/mL) / blank [5]: 1.14
ratio (2.7 pg/mL) /blank [20]: 1.32
ratio (2.7 pg/mL) /blank [21]: 1
ratio (0.9 pg/mL) / blank [22]: 1.01
ratio (2.7 pg/mL) /blank [23]: 1.09
ratio (0.9 pg/mL) / blank [24]: 0.99
ratio (2.7 pg/mL) /blank [6]: 1.32
Ratio (Δ OD 2.7 pg/mL/blank) [8]: 0.99
Ratio (Δ OD 1 ng/mL MYBPC3) / blank [25]: 3.39
ratio (2.7 pg/mL) /blank [10]: 1
Ratio (Δ OD 2.7 pg/mL/blank) [11]: 1.43
B2: monoclonal antibody 4.1.1 (antibody, V domains shown)
VH: QVQLKESGPGLVAPSQSLSITCTVSGFSLTGYGVNWVRQPPGKGLEWLGMIWGDGSTDYNSVYKSRLSISKDNSKSQVFLKMNSLQTDDTARYYCARRDTGGASMDYWGQGTSVTVSS
VL: DILMTQSPAILSVSPGERVSFSCRASQNIGTNMHWYQQRTNGSPRLLIRFASESFSGIPSRFSGTGSGTDFTLRINSVESEDIADYYCQQSYNWPFTFGAGTKLELK
notes: Mouse hybridoma monoclonal IgG; Biotinylated, DIG-labelled or ruthenylated in the sandwich assays; also called M-4.1.1; M.4.1.1
